Reference: patent publication US20200247894A1

Assays:
[1] = target: human IL2Rγ (endogenously expressed on cells) (human) (UniProt P31785); experiment: cell-based or functional assay
[2] = target: Human IL2Rγ extracellular domain expressed with a C-terminal mouse IgG2a Fc tag (human); experiment: SPR Biacore 4000, anti-hFc-captured mAb, 25 C
[3] = target: Human IL2Rγ extracellular domain expressed with a C-terminal mouse IgG2a Fc tag (human); experiment: SPR Biacore 4000, anti-hFc-captured mAb, 37 C

Sequence of Human IL2Rγ extracellular domain expressed with a C-terminal mouse IgG2a Fc tag (human) (chain, as listed by the source limits assumed): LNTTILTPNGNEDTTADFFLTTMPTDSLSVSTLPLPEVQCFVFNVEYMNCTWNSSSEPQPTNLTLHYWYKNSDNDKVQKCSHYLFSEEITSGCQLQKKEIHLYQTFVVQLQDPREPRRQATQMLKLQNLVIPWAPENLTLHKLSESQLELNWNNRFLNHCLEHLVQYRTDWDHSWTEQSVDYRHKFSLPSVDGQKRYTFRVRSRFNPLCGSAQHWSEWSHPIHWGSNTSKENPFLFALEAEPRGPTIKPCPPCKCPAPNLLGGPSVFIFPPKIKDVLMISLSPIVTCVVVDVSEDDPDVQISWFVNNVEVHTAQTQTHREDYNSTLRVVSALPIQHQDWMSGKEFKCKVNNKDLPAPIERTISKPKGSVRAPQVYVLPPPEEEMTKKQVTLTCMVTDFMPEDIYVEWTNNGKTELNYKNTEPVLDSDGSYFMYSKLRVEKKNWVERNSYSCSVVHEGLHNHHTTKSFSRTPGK
Sequence of human IL2Rγ (endogenously expressed on cells) (human) (P31785 23-369): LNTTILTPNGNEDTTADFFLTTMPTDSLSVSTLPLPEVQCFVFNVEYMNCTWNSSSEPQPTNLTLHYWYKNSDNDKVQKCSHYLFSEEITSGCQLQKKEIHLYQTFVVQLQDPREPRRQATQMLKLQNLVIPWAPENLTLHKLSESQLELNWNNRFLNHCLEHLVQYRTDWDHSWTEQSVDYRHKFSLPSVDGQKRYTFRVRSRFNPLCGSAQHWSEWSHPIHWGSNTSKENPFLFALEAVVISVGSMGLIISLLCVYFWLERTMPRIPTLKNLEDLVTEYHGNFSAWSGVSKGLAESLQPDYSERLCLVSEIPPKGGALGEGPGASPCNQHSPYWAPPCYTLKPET

EC50; IL-7 dose response; NK92/hIL7R/STAT3-luc [1] [nM] | 50 nM Ag Bound [2] [RU] | 50 nM Ag Bound [3] [RU] | Binder
0.039 |  |  | human IL-7 (ligand, UniProt P13232 26-177, looked up) DCDIEGKDGKQYESVLMVSIDQLLDSMKEIGSNCLNNEFNFFKRHICDANKEGMFLFRAARKLRQFLKMNSTGDFDLHLLKVSEGTTILLNCTGQVKGRKPAALGEAQPTKSLEENKSLKEQKKLNDLCFLKRLLQEIKTCWNKILMGTKEH
 | 1 | 2 | H4H12899P (antibody, human IgG4 S228P, kappa, V domains shown) VH: QVQLVESGGDLVKPGGSLRLSCATSGFTFSDFYMTWIRQAPGKGLEWISYISNSGSIVKYADSVKGRFTISRDNAKNSLYLQMNSLRAEDTAIYYCARFYGDRWGQGTLVTVSS VL: DIQLTQSPSFLSASVGDRVTITCWASQGISTFLAWYQQKPGKAPKLLIYAASTLQSGVPSRFSGSGSGTDFTLTISSLQPEDFATYHCQQLNNYPWTFGQGTKVEIKR
 | 4 | 4 | H4H12900P (antibody, human IgG4 S228P, kappa, V domains shown) VH: QVQLVESGGGLVKPGGSLRLSCEASGFTFNDFYMTWIRQAPGKGLEWIAYISKSGDKMRYADSVKGRFSTSRDNAKNSLSLQMNSLRAEDTAVYYCARFYGDIWGQGTLVTVSS VL: DIQLTQSPSFLSASVGDRVTITCWASQDISSFLVWYQQKPGKAPNLLIYAASALQSGVPSRFSGSGSGTEFTLTISSLQPEDFASYYCEQLNNYPWTFGQGTKVEIKR
